The results in this text go back to article PMC7218866, “Impact of Self-Assembled Monolayer Design and Electrochemical Factors on Impedance-Based Biosensing”.

The target in this data set is lysozyme (UniProt P00698 19-147). As to the kind of experiment: electrochemical impedance spectroscopy (EIS); dense aptamer SAM (no MCH dilution), ferricyanide reporter; RCT change significant from 8 nM (LOD), up to 12%; 1x HBS, pH 7.4, redox reporter (ferricyanide or methylene blue) in solution; aptamer on gold electrode; temperature not stated. To be noted: protein: commercial.
lysozyme, sequence (P00698 19-147): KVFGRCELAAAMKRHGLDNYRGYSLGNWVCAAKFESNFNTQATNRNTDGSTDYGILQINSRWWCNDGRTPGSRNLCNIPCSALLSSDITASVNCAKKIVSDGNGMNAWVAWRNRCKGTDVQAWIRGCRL

B1: lysozyme aptamer (thiolated) (ssDNA)
DNA: AGCAGCACAGAGGTCAGATGGCAGGTAAGCAGGCGGCTCACAAAACCATTCGCATGCGGC
modifications: 5' thiol-C6 (SH-C6), immobilized on gold in SAM
For B1, the binding result is “binds”.
